Target: Vaccinia DNA topoisomerase I (Vaccinia virus, UniProt P68698 P68698:1-314)
Assay: covalent topoisomerase-DNA complex isolated on SP Sepharose; cleaved linker band seen after proteinase K
Conditions: tags: Invitrogen; nicked duplex with 3' overhang
Experimental: The topoisomerase-charged promoter linker was purified using an Akta-FPLC and Unicom software ver. 4.00 (Amersham). 360 μl of the linking reaction was loaded onto a 1 ml HiTrap SP Sepharose HP pre-packed column (Amersham) pre-equilibrated in buffer A (50 mM Tris-HCl pH 7.0), washed at 0.5 ml/min with 11 ml buffer A (collected in 1 ml fractions), and eluted with a 5 ml, 0-100% buffer B (50 mM Tris-HCl pH 7.0, 1M NaCl) gradient followed by 3 ml of 100% buffer B. The eluate was collected in 0.2 ml fractions.

B1: T7 TOPO linker (T7topG/T7botG/TOPO-5) (dsDNA)
DNA 1: GACTCGTAATACGACTCACTATAGGGCCCTTATTCCGATAGTG
DNA 2: AGGGCCCTATAGTGAGTCGTATTACGAGTCAAAAAAAAAAAA
DNA 3: CAACACTATCGGAATA
modifications: 5'-phosphate on each oligo
binding result: binds

— patent US20040265863, “Methods and compositions for synthesis of nucleic acid molecules using multiple recognition sites” (Invitrogen Corporation, published 2004)
